The results in this text go back to PMC5154385 (ACS infectious diseases, 2015).

One series addresses Eis_Mab2 (Mycobacteroides abscessus, UniProt B1MKV6). Kind of series: DTNB. The series is classed as biochemical.
Series [1] deals with NC[C@@H]1O[C@H](O[C@H]2[C@@H](O)[C@H](O[C@@H]3[C@@H](O)[C@H](N)C[C@H](N)[C@H]3O[C@H]3O[C@H](CO)[C@@H](O)[C@H](O)[C@H]3N)O[C@@H]2CO)[C@H](N)[C@@H](O)[C@@H]1O. Nature of the series: purified protein. The following applies: co-substrate AcCoA fixed (printed 0.5 μM), pH 8.0, 25 °C.
Series [2] deals with NC[C@H]1O[C@H](O[C@H]2[C@H](O)[C@@H](O[C@H]3O[C@H](CO)[C@@H](O)[C@H](N)[C@H]3O)[C@H](N)C[C@@H]2N)[C@H](O)[C@@H](O)[C@@H]1O. Kind of series: purified protein. The following applies: co-substrate AcCoA fixed (printed 0.5 μM), pH 8.0, 25 °C.

In the case of `[H]/N=C(\N/C(=N/[H])NCCCCCCNC(=N)NC(=N)Nc1ccc(Cl)cc1)Nc1ccc(Cl)cc1` [chlorhexidine], on Eis_Mab2, half-maximal inhibition (IC50) required 4.4 ± 0.9 µM.
Consider “Eis_Mab2 (Mycobacteroides abscessus ATCC 19977)”, for which, in series [1], the Km (in general, the concentration of substrate that gives half-maximal velocity) amounted to 144 ± 14 µM; the kcat (commonly the number of substrate molecules converted per active site and unit of time at saturation) was 2.83 ± 0.07 s⁻¹; the kcat/Km (commonly the turnover number divided by the Michaelis constant) amounted to 19700 ± 1970 M⁻¹ s⁻¹. In series [2], the Michaelis constant (Km) is 125 ± 27 µM, the turnover number (kcat) is 0.124 ± 0.007 s⁻¹ and the catalytic efficiency (kcat/Km) worked out at 992 ± 377 M⁻¹ s⁻¹.
